Assay in all cases: EMSA
In general terms: A gel shift assay detects complexes by their altered migration in electrophoresis.

Series [1] addresses NF90ΔC381 (DZF);NF45ΔN28 (DZF) (mouse;mouse, UniProt Q9Z1X4;Q9CXY6 1-380;29-390, |).
For the next series, the target named is T1, NF90 dsRBDs (mouse, UniProt Q9Z1X4 380-590).
T1 sequence: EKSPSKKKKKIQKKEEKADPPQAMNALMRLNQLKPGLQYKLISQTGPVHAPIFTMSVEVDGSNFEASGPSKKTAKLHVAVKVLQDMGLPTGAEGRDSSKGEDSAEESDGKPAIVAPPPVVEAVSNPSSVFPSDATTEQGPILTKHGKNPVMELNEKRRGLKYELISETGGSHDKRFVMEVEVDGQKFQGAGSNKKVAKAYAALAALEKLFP

The target in series [2] is NF90ΔC591 (DZF + both dsRBDs);NF45 (partner in long complex) (mouse;mouse, UniProt Q9Z1X4;Q9CXY6 1-590;29-390, |).
Sequence of NF90ΔC591 (DZF + both dsRBDs);NF45 (partner in long complex) (Q9CXY6 29-390, stated change not applied, one chain of several): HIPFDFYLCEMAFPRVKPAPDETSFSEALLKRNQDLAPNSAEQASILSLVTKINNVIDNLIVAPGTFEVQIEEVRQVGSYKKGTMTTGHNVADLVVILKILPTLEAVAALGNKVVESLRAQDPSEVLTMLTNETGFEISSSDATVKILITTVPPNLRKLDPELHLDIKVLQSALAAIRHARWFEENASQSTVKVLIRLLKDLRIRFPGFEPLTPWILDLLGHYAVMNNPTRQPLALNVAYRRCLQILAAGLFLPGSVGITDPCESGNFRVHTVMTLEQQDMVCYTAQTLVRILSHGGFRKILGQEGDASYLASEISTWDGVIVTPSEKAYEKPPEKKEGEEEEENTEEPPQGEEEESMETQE

B1: ss17-A10 (ssRNA)
RNA: CCCCACCACCAUCACUUAAAAAAAAAA
For the molecule B1, the binding result in series [1] is reported as “no binding”.

B2: ss17-A10/Css17-U10 dsRNA (dsRNA)
RNA 1: CCCCACCACCAUCACUUAAAAAAAAAA
RNA 2: UUUUUUUUUUAAGUGAUGGUGGUGGGG
As for B2, the binding result is on record as “no binding” in series [1], “binds” in the series with NF90 dsRBDs and “binds” in series [2].
